In the PETadex activity labels:

B1: unnamed (protein)
chain: MSMTASAYALAQSSPYAKGPDPTTSSLEAATGSFSTRTTTVSRLSASGFGGGTIYYPTASGSYGAIAISPGFTAYQSSISWLGTRLASRGFVVITIDTITTSDQPDSRGRQLKAALDKVVSLSRTAGNVLYGKVDANRLAVAGHSMGGGGTLAAARDNPSLKAAVPLAPWHTTKFFSTIRVPTLIIGGESDTIAPVASHSIPFYTSSLSSIAKGYMELNNASHFFPQTSTYYPLVGKYMISWFKRFVDEDTRYSPFLCGAPHQSDVANFLRVSDYRENCPY
B2: unnamed (protein)
chain: MNFPRASRLMQAAVLGGLMAVSAAATAQTNPYARGPNPTAASLEASAGPFTVRSFTVSRPSGYGAGTVYYPTNAGGTVGAIAIVPGYTARQSSIKWWGPRLASHGFVVITIDTNSTLDQPSSRSSQQMAALRQVASLNGTSSSPIYGKVDTARMGVMGHSMGGGGSLISAANNPSLKAAAPQAPWDSSTNFSSVTVPTLIFACENDSIAPVNSSALPIYDSMSRNAKQFLEINGGSHFCANSGNSNQALIGKKGVAWMKRFMDNDTRYSTFACENPNSTRVSDFRTANCS

Substrate: BHET
Assay: Proxy for plastic degradation [Released monomer concentration (HPLC/LC-MS) (BHET)]
Conditions: pH 7

Row | Protein | Proxy for plastic degradation [%]
1 | B1 | 1

Substrate: BHET
Assay: not given
Conditions: 50 °C; part of the chain shown

Row | Protein | Km [µM] | kcat [s⁻¹] | kcat/Km [M⁻¹ s⁻¹]
2 | B2 | 1610 | 540 | 335000
